± gives the standard deviation.
Experiment: protein stability index of a GFP-peptide fusion (GPS, HEK-293T) (PSI 1-6); higher = more stable
[1] = treatment: DMSO, c terminus: a fixed tail appended
[2] = treatment: MLN4924 1 uM, 8 h, c terminus: a fixed tail appended
[3] = treatment: DMSO, c terminus: native
[4] = treatment: MLN4924 1 uM, 8 h, c terminus: native
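Further: 24-mer peptide tiles fused after GFP, lentivirally expressed, FACS-sorted into six equal bins by GFP/DsRed ratio, decoded by Illumina sequencing, PSI is the read-weighted mean bin number.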

CSPSQMDLLCAQLQLPQLSDLGLL [FANCE]
protein stability index [1]: 2.15 ± 0.42 | protein stability index [2]: 2.13 ± 0.44

ERAVKRMRHLSTGTMTGLAIQYAL [MATN2]
protein stability index [1]: 2.39 ± 0.44 | protein stability index [2]: 2.22 ± 0.32

SAHFTSGPLVPRLAGMANHGSPQL [TBX5]
protein stability index [1]: 3.35 ± 0.21 | protein stability index [2]: 3.5 ± 0.13

SRGLHAWEISWPLEQRGTHAVVGV [SPSB2]
protein stability index [1]: 2.43 ± 0.4 | protein stability index [2]: 2.17 ± 0.44

KEENEAESDVKHRTRDYKKTSLAP [PRIM1]
protein stability index [1]: 5.37 ± 0.23 | protein stability index [2]: 5.37 ± 0.41

KALLYLPIAPEVEDPEENPYGPPP [RBBP5]
protein stability index [1]: 3.94 ± 0.31 | protein stability index [2]: 4.07 ± 0.42

AVLAASSPYFHDQVLLKGMTSISL [ZBTB22]
protein stability index [1]: 2.7 ± 0.32 | protein stability index [2]: 2.47 ± 0.34

QLKLDHYRAALRSCSLVLEHQPDN [FKBP8]
protein stability index [1]: 2.93 ± 0.18 | protein stability index [2]: 2.98 ± 0.27

NFNPLLVAGGVAVAAIALILGVAF [CEND1]
protein stability index [1]: 3.24 ± 0.27 | protein stability index [2]: 3.47 ± 0.22

VKKYKSMKLEKEEFVTLKAIALAN [ESRRG]
protein stability index [1]: 2.46 ± 0.32 | protein stability index [2]: 2.66 ± 0.2

VFDLPESLGGIRACTLTVFPPEET [KLHL13]
protein stability index [1]: 3.33 ± 0.41 | protein stability index [2]: 3.39 ± 0.37

DSFLVALDMDDGTLSFIVDGQYMG [SPSB1]
protein stability index [1]: 2.64 ± 0.63 | protein stability index [2]: 2.74 ± 0.41

SPESGLEVRDRMLLKITIPNAFIG [DVL3]
protein stability index [1]: 2.3 ± 0.15 | protein stability index [2]: 2.24 ± 0.34

SSQSSLAQEEEEEDQGRTRKRKQS [DDIT3]
protein stability index [1]: 5.55 ± 0.32 | protein stability index [2]: 5.44 ± 0.09

SASSDEPYARIQQSRRQCHAEEDQ [SMIM2]
protein stability index [1]: 5.49 ± 0.17 | protein stability index [2]: 5.63 ± 0.2

YAELGQCSVFPATDAPEQFISQVT [PLK2]
protein stability index [1]: 2.67 ± 0.16 | protein stability index [2]: 3.04 ± 0.41

LAQLLDTLLAIGTKLPENQAIQMR [INTS4]
protein stability index [1]: 3.12 ± 0.73 | protein stability index [2]: 2.76 ± 0.5

EEDNELNLPNLAAAYSSILSSLGE [GCH1]
protein stability index [1]: 3.68 ± 0.31 | protein stability index [2]: 3.73 ± 0.16

FWPHLKASNWSTTGFGQGQGYTIN [HDAC6]
protein stability index [1]: 2.38 ± 0.32 | protein stability index [2]: 2.64 ± 0.17

EQIRFVMKAHSFVRENVPRVLNSA [SOAT1]
protein stability index [1]: 2.58 ± 0.46 | protein stability index [2]: 2.48 ± 0.41

LSDKSCQSFISWTGDGWEFKLADP [ETS2]
protein stability index [1]: 2.49 ± 0.22 | protein stability index [2]: 2.59 ± 0.36

QYFTNRLDMSQNVSLVTAELSKDA [SLC29A1]
protein stability index [1]: 4.2 ± 0.21 | protein stability index [2]: 4.25 ± 0.24

KLEKSIDSYYRLVIHRALDREQVS [PCDHGA10]
protein stability index [1]: 2.55 ± 1 | protein stability index [2]: 2.48 ± 0.84

PCLGHTFNAGIQQAFQLPKLGALL [ZBED1]
protein stability index [1]: 2.36 ± 0.37 | protein stability index [2]: 2.02 ± 0.24

SIRDANLYVSGLPKTMSQKEMEQL [ELAVL3]
protein stability index [1]: 4.4 ± 0.061 | protein stability index [2]: 4.27 ± 0.2

NARGASIFSVTALDPDSKENAQII [PCDHGA10]
protein stability index [1]: 3.75 ± 0.12 | protein stability index [2]: 3.97 ± 0.24

LLSQEKLQEQHLSSPQGVQLDIAS [BCL2L13]
protein stability index [1]: 4.45 ± 0.14 | protein stability index [2]: 4.36 ± 0.15

ATGEVLGQFYLDLYPREGKYNHAA [NLN]
protein stability index [1]: 2.91 ± 0.83 | protein stability index [2]: 2.73 ± 0.27

LQSGQEYVFFVLAVMEHAESKMYA [PTPRD]
protein stability index [1]: 2.4 ± 0.63 | protein stability index [2]: 2.51 ± 0.75

SRLLIFPLYICCNFLYISPEKKN [GMCL1]
protein stability index [3]: 2.97 ± 0.27 | protein stability index [4]: 2.71 ± 0.43

DDGRLLEYDTVTREVKVLLDQLRF [APMAP]
protein stability index [1]: 2.62 ± 0.2 | protein stability index [2]: 3.05 ± 0.38

PVYVSCIAQDTCTTTDHSSNPGPV [SPAG8]
protein stability index [1]: 3.75 ± 0.39 | protein stability index [2]: 3.9 ± 0.33

DIKNPEITTNRFYGPQVNNISHTK [WASL]
protein stability index [1]: 3.19 ± 0.26 | protein stability index [2]: 3.48 ± 0.41

ALGKLLPRETLCTELVLSDCMLSE [LRRC45]
protein stability index [1]: 2.22 ± 0.32 | protein stability index [2]: 2.67 ± 0.45

ASSMLRKSQLGFLNVTNYCHLAHE [DCAF4]
protein stability index [1]: 2.2 ± 0.41 | protein stability index [2]: 2.42 ± 0.16

AYSGNTSNLSYHLEKNHPEEFCEF [ZBED1]
protein stability index [1]: 3.63 ± 0.38 | protein stability index [2]: 3.55 ± 0.48

LHTAREFSEEDEEETTSQDWGTPR [RTN2]
protein stability index [1]: 5.4 ± 0.27 | protein stability index [2]: 5.46 ± 0.23

GADCGIQWWNAVFIMLLIGIVLPV [LYSMD4]
protein stability index [1]: 2.88 ± 0.1 | protein stability index [2]: 3.03 ± 0.45

AQTNPTPGSLGPWKITIYDQENFQ [CRYBA1]
protein stability index [1]: 3.18 ± 0.41 | protein stability index [2]: 3.3 ± 0.2

QEAAERESKLLRDLSAANEKNLLL [LRRC45]
protein stability index [1]: 4.37 ± 0.14 | protein stability index [2]: 4.19 ± 0.13

PHLMQEHMGTNVIVANTMPTHLSN [HNF4A]
protein stability index [1]: 3.83 ± 0.19 | protein stability index [2]: 3.97 ± 0.24

EKYKTQIDHYVGIARDQTKSIVEK [RTN3]
protein stability index [1]: 4.07 ± 0.2 | protein stability index [2]: 4.15 ± 0.31

PSSPLRLGSYKAQKTSRSSSIPCS [PPEF2]
protein stability index [1]: 3.86 ± 0.24 | protein stability index [2]: 3.95 ± 0.21

MFQGWNCGDYFPDGITNGASWYSL [CPN1]
protein stability index [1]: 2.7 ± 0.37 | protein stability index [2]: 2.31 ± 0.45

ALGIYGAPYAAAAAAQSYPGYLPY [IRX6]
protein stability index [1]: 2.23 ± 0.14 | protein stability index [2]: 2.19 ± 0.27

QVGAKGDTANEIGQVLHFENVKDV [SERPINB5]
protein stability index [1]: 4.94 ± 0.37 | protein stability index [2]: 5.19 ± 0.24

FTGRDSITCLTCQGTGYIPTEQVN [TMEM106C]
protein stability index [1]: 2.66 ± 0.57 | protein stability index [2]: 3.31 ± 0.65

PYREDEEGAFGEHGSQGTYSNTKE [MAP2]
protein stability index [1]: 5.66 ± 0.22 | protein stability index [2]: 5.72 ± 0.2

QSTVKCLTVLQRLDVWLSGGNDLC [WDR41]
protein stability index [1]: 2.6 ± 0.63 | protein stability index [2]: 2.32 ± 0.4

TSASFGEESTPGQTNSETAVVALT [HDAC6]
protein stability index [1]: 4.714 ± 0.027 | protein stability index [2]: 5.05 ± 0.19

GVRVNNRFELINIDDLEDDPVVNG [TCF25]
protein stability index [1]: 4.41 ± 0.16 | protein stability index [2]: 4.51 ± 0.18

GLRAGFSSTSYRRTFGPPPSLSPG [PRPH]
protein stability index [1]: 2.62 ± 0.24 | protein stability index [2]: 2.93 ± 0.15

KRGPSSRSGGPPPKKSAPSAVARS [RBMY1A1]
protein stability index [1]: 4.47 ± 0.12 | protein stability index [2]: 4.78 ± 0.39

TKKRHTPRGHAESTSNRQPRKQG [SMOC2]
protein stability index [3]: 2.59 ± 0.62 | protein stability index [4]: 3.3 ± 0.49

NDTAGPELPDPLGGLLDEAMLDEI [NFE2L1]
protein stability index [1]: 5.22 ± 0.41 | protein stability index [2]: 5.6 ± 0.13

RRSMKRKALFTCPFNGDCRITKDN [VDR]
protein stability index [1]: 3.29 ± 0.45 | protein stability index [2]: 3.48 ± 0.3

ELPLLTPCSKAVMSQALKATFSGF [ETS2]
protein stability index [1]: 2.62 ± 0.28 | protein stability index [2]: 2.06 ± 0.65

SALEDQGSNPSSSNSSQDSLHKGA [PPFIA4]
protein stability index [1]: 5.48 ± 0.14 | protein stability index [2]: 5.49 ± 0.23

VLAIIAREGDCAPEEKIWEELSVL [MAGEA3]
protein stability index [1]: 2.62 ± 0.48 | protein stability index [2]: 2.42 ± 0.4

ENWVCLSCYQVYCGRYINGHMLQH [HDAC6]
protein stability index [1]: 2.33 ± 0.76 | protein stability index [2]: 2.54 ± 0.46

SSEASQLEDAAGGDSASEEKSGSA [FBXO34]
protein stability index [1]: 5.61 ± 0.17 | protein stability index [2]: 5.55 ± 0.29

FQSRLPYQYLHYALFKANRLEKAV [P3H4]
protein stability index [1]: 2.37 ± 0.53 | protein stability index [2]: 2.31 ± 0.56

DPQSGELPSERWNPTQNVRTILLS [CDC34]
protein stability index [1]: 3.31 ± 0.35 | protein stability index [2]: 3.62 ± 0.43

MERSPDVSPGPSRSFKEELLCAVC [TRIM35]
protein stability index [1]: 3.47 ± 0.18 | protein stability index [2]: 3.6 ± 0.25

SSSSSSSSSSSASSSASSSFSEEG [NFE2L1]
protein stability index [1]: 5.43 ± 0.33 | protein stability index [2]: 5.38 ± 0.23

Reference: the supplement of paper PMC10567573
